From patent US20100151556A1 (CELLECTIS, published 2010)

How the values were obtained:
[1] = target: the molecule itself; experiment: size-exclusion chromatography of the purified protein; no self-association
Experimental: The molecular weight of Sc I-CreI in solution was estimated by size-exclusion chromatography of the purified protein. The column fractions were analyzed by SDS-PAGE, and the 31.4 kDa band eluted primarily, which corresponded to a molecular mass of 30 kDa.

[2] = target: the molecule itself; experiment: analytical gel filtration (Superdex 200) of the purified single chain; no self-association
Experimental: Circular dichroism (CD) measurements were performed on a Jasco J-810 spectropolarimeter using a 0.2 cm path length quartz cuvette adm […] protein solutions in phosphate saline buffers. Equilibrium unfolding was induced increasing temperature at a rate of 1° C./min (using a programmable Peltier thermoelectric). Analytical gel filtration chromatography was performed at room temperature with an AKTA FPLC system (GE) using a Superdex 200 10/300GL column in 20 mM sodium phosphate buffer pH 6.0 1 M NaCl. A sample of 100 μL of SC-v3v2G19S constructs at a concentration of 0.3 mg/ml was injected and eluted at a flow rate of 0.2 ml/min. The column was calibrated with blue dextran (excluded volume) and molecular weight markers from 17 to 670 kDa (BioRad).

[3] = target: T1, H33 I-CreI mutant (C3 / HprCH3.3 cutter)
T1 chain: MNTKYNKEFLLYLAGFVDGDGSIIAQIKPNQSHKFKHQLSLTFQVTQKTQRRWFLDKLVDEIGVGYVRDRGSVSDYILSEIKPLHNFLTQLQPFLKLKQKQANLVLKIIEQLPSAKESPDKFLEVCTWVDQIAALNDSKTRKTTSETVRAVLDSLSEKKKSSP

B1: M2-RM2-M3 RAG1 single chain meganuclease (protein)
chain: MNTKYNKEFLLYLAGFVDGDGSIIAQIKPRQSNKFKHQLSLTFAVTQKTQRRWFLDKLVDEIGVGYVYDSGSVSDYRLSEIKPLHNFLTQLQPFLKLKQKQANLVLKIIEQLPSAKESPDKFLEVCTWVDQIAALNDSKTRKTTSETVRAVLDSLSEKKKSSPAAGGSDKYNQALSKYNQALSKYNQALSGGGGSNKEFLLYLAGFVDGDGSIIAQINPNQSSKFKHRLRLTFYVTQKTQRRWFLDKLVDEIGVGYVRDSGSVSQYVLSEIKPLHNFLTQLQPFLKLKQKQANLVLKIIEQLPSAKESPDKFLEVCTWVDQIAALNDSKTRKTTSETVRAVLDSLSEKKKSSP
cleavage of the palindromic RAG1.10.2 target (yeast screen): M2-RM2-M3 was found to cleave also RAG1.10.2

B2: M2G19S-RM2-M3 RAG1 single chain meganuclease (protein)
chain: MNTKYNKEFLLYLAGFVDSDGSIIAQIKPRQSNKFKHQLSLTFAVTQKTQRRWFLDKLVDEIGVGYVYDSGSVSDYRLSEIKPLHNFLTQLQPFLKLKQKQANLVLKIIEQLPSAKESPDKFLEVCTWVDQIAALNDSKTRKTTSETVRAVLDSLSEKKKSSPAAGGSDKYNQALSKYNQALSKYNQALSGGGGSNKEFLLYLAGFVDGDGSIIAQINPNQSSKFKHRLRLTFYVTQKTQRRWFLDKLVDEIGVGYVRDSGSVSQYVLSEIKPLHNFLTQLQPFLKLKQKQANLVLKIIEQLPSAKESPDKFLEVCTWVDQIAALNDSKTRKTTSETVRAVLDSLSEKKKSSP
cleavage of the palindromic RAG1.10.2 target (yeast screen): abolishes RAG1.10.2 cleavage

B3: Single chain I-CreI meganuclease (enzyme)
chain: MANTKYNKEFLLYLAGFVDGDGSIIAQIKPNQSYKFKHQLSLTFQVTQKTQRRWFLDKLVDEIGVGYVRDRGSVSDYILSEIKPLHNFLTQLQAMLERIRLFNMREFLLYLAGFVDGDGSIIAQIKPNQSYKFKHQLSLTFQVTQKTQRRWFLDKLVDEIGVGYVRDRGSVSDYILSEIKPLHNFLTQLQPFLKLKQKQANLVLKIIEQLPSAKESPDKFLEVCTWVDQIAALNDSKTRKTTSETVRAVLDSLSEKKKSSPAAD
notes: Produced 'with or without an histidine tag'; It was purified on a cobalt column; also called Sc I-CreI; scI-CreI
binding result [1]: no binding

B4: single-chain M3-RM2-M2G19S meganuclease (enzyme)
chain: MANTKYNKEFLLYLAGFVDGDGSIIAQINPNQSSKFKHRLRLTFYVTQKTQRRWFLDKLVDEIGVGYVRDSGSVSQYVLSEIKPLHNFLTQLQPFLKLKQKQANLVLKIIEQLPSAKESPDKFLEVCTWVDQIAALNDSKTRKTTSETVRAVLDSLSGKKKSSPAAGGSDKYNQALSKYNQALSKYNQALSGGGGSNKEFLLYLAGFVDSDGSIIAQIKPRQSNKFKHQLSLTFAVTQKTQRRWFLDKLVDEIGVGYVYDSGSVSDYRLSEIKPLHNFLTQLQPFLKLKQKQANLVLKIIEQLPSAKESPDKFLEVCTWVDQIAALNDSKTRKTTSETVRAVLDSLSEKKKSSP
notes: also called SC-v3v2G19S; not shown: His6 tag at the C-terminus
binding result [2]: no binding

B5: X2 I-CreI mutant (C4 cutter) (protein)
chain: MNTKYNKEFLLYLAGFVDGDGSIIAQIKPNQSHKFKHALQLTFKVTQKTQRRWFLDKLVDEIGVGYVQDSGSVSNYILSEIKPLHNFLTQLQPFLKLKQKQANLVLKIIEQLPSAKESPDKFLEVCTWVDQIAALNDSKTRKTTSETVRAVLDSLSEKKKSSP
cleavage of the XPC C1 DNA target on co-expression in yeast [3]: cleaves the C1 target | cleavage of the palindromic C4 DNA target on co-expression of X2 and H33 in yeast: but also the C3 and C4 targets

B6: MA17 I-CreI mutant (HprCH3.4 cutter) (protein)
chain: MNTKYNKEFLLYLAGFVDGDGSIIAQIKPNQTHKFKHQLSLTFRVTQKTQRRWFLDKLVDEIGVGYVYDSGTVSNYNLSEIKPLHNFLTQLQPFLKLKQKQANLVLKIIEQLPSAKESPDKFLEVCTWVDQIAALNDSKTRKTTSETVRAVLDSLSEKKKSSP
cleavage of the HprCH3 DNA target on co-expression in yeast [3]: resulted in the cleavage of the HprCH3 DNA target | cleavage of the palindromic HprCH3.3 and HprCH3.4 targets on co-expression of MA17 and H33 in yeast: cleavage of the HprCH3.3 and HprCH3.4 targets

B7: H33 I-CreI mutant (C3 / HprCH3.3 cutter) (protein)
chain: MNTKYNKEFLLYLAGFVDGDGSIIAQIKPNQSHKFKHQLSLTFQVTQKTQRRWFLDKLVDEIGVGYVRDRGSVSDYILSEIKPLHNFLTQLQPFLKLKQKQANLVLKIIEQLPSAKESPDKFLEVCTWVDQIAALNDSKTRKTTSETVRAVLDSLSEKKKSSP
cleavage of the palindromic HprCH3.3 and HprCH3.4 targets on co-expression of MA17 and H33 in yeast: cleavage of the HprCH3.3 and HprCH3.4 targets

B8: X2-L1-H33 single chain meganuclease (protein)
chain: MNTKYNKEFLLYLAGFVDGDGSIIAQIKPNQSHKFKHALQLTFKVTQKTQRRWFLDKLVDEIGVGYVQDSGSVSNYILSEIKPLHNFLTQLQPFLKLKQKQANLVLKIIEQLPSAKESPDKFLEVCTWVDQIAALNDSKTRKTTSETVRAVLDSLSEKKKSSPAAGGGGSGGGGSGGGGSGGGGSNKEFLLYLAGFVDGDGSIIAQIKPNQSHKFKHQLSLAFQVTQKTQRRWFLDKLVDEIGVGYVRDRGSVSDYILSEIKPLHNFLTQLQPFLKLKQKQANLVLKIIWRLPSAKESPDKFLEVCTWVDQIAALNDSKTRKTTSETVRAVLDSLSEKKKSSP
cleavage of the palindromic C3 target (yeast screen and CHO extrachromosomal assay): the strong cleavage of the C3 target with single chain molecules

B9: X2-L1-H33G19S single chain meganuclease (protein)
chain: MNTKYNKEFLLYLAGFVDGDGSIIAQIKPNQSHKFKHALQLTFKVTQKTQRRWFLDKLVDEIGVGYVQDSGSVSNYILSEIKPLHNFLTQLQPFLKLKQKQANLVLKIIEQLPSAKESPDKFLEVCTWVDQIAALNDSKTRKTTSETVRAVLDSLSEKKKSSPAAGGGGSGGGGSGGGGSGGGGSNKEFLLYLAGFVDSDGSIIAQIKPNQSHKFKHQLSLAFQVTQKTQRRWFLDKLVDEIGVGYVRDRGSVSDYILSEIKPLHNFLTQLQPFLKLKQKQANLVLKIIWRLPSAKESPDKFLEVCTWVDQIAALNDSKTRKTTSETVRAVLDSLSEKKKSSP
cleavage of the palindromic C3 target (CHO extrachromosomal assay): greatly reduces the activity toward the C3 target

B10: X2-RM2-H33G19S single chain meganuclease (protein)
chain: MNTKYNKEFLLYLAGFVDGDGSIIAQIKPNQSHKFKHALQLTFKVTQKTQRRWFLDKLVDEIGVGYVQDSGSVSNYILSEIKPLHNFLTQLQPFLKLKQKQANLVLKIIEQLPSAKESPDKFLEVCTWVDQIAALNDSKTRKTTSETVRAVLDSLSEKKKSSPAAGGSDKYNQALSKYNQALSKYNQALSGGGGSNKEFLLYLAGFVDSDGSIIAQIKPNQSHKFKHQLSLAFQVTQKTQRRWFLDKLVDEIGVGYVRDRGSVSDYILSEIKPLHNFLTQLQPFLKLKQKQANLVLKIIWRLPSAKESPDKFLEVCTWVDQIAALNDSKTRKTTSETVRAVLDSLSEKKKSSP
cleavage of the palindromic C3 target (CHO extrachromosomal assay): greatly reduces the activity toward the C3 target

B11: X2-RM2-H33 single chain meganuclease (protein)
chain: MNTKYNKEFLLYLAGFVDGDGSIIAQIKPNQSHKFKHALQLTFKVTQKTQRRWFLDKLVDEIGVGYVQDSGSVSNYILSEIKPLHNFLTQLQPFLKLKQKQANLVLKIIEQLPSAKESPDKFLEVCTWVDQIAALNDSKTRKTTSETVRAVLDSLSEKKKSSPAAGGSDKYNQALSKYNQALSKYNQALSGGGGSNKEFLLYLAGFVDGDGSIIAQIKPNQSHKFKHQLSLAFQVTQKTQRRWFLDKLVDEIGVGYVRDRGSVSDYILSEIKPLHNFLTQLQPFLKLKQKQANLVLKIIWRLPSAKESPDKFLEVCTWVDQIAALNDSKTRKTTSETVRAVLDSLSEKKKSSP
cleavage of the palindromic C3 target (yeast screen and CHO extrachromosomal assay): the strong cleavage of the C3 target with single chain molecules
